Measured values as given in patent US20210054047A1, “NOVEL ANTICANCER FUSION PROTEIN AND USE THEREOF” (KOREA INSTITUTE OF SCIENCE AND TECHNOLOGY, priority 2018, published 2021).

What was measured:
[1] = test system: PARP; test: Western blot of HT29 lysates: PARP; assay type: cell-based, human; conditions: HT29, 24 hours
Protocol: (§1) After incubating HT29 cells with 50 nM DOX-TTPNs, DOX-FTNs, free DOX, or buffer for 24 hours, cells were lysed with radioimmunoprecipitation assay (RIPA) buffer (Cell Signaling Technology) and the concentration of proteins was measured using a DC protein assay kit (Bio-Rad). Equal amounts of proteins (30 μg) were resolved by SDS-PAGE and transferred to nitrocellulose membranes. After blocking with 5% skim milk in Tris-buffered saline containing 0.1% Tween-20 (TBST), membranes were incubated first with anti-Cl-PARP, anti-Cl-caspase-6, anti-cFLIP, anti-Bcl-xL, anti-XIAP, anti-Cl-caspase-3, or anti-GAPDH primary antibody (Cell Signaling Technology), and then with anti-mouse or anti-rabbit secondary antibodies (Sigma-Aldrich), as appropriate. Immunoreactive proteins were visualized using enhanced chemiluminescence (ECL) chemical reagents (Bio-Rad) and ChemiDoc (Bio-Rad), and were analyzed using ImageJ software.

[2] = target: T1, DR4 (Homo sapiens, UniProt O00220); test: SPR binding to immobilized DR4-Fc
T1 construct: purchased R&D systems 347-DR-100
T1 sequence (O00220 with tags, fused parts or gaps limits assumed): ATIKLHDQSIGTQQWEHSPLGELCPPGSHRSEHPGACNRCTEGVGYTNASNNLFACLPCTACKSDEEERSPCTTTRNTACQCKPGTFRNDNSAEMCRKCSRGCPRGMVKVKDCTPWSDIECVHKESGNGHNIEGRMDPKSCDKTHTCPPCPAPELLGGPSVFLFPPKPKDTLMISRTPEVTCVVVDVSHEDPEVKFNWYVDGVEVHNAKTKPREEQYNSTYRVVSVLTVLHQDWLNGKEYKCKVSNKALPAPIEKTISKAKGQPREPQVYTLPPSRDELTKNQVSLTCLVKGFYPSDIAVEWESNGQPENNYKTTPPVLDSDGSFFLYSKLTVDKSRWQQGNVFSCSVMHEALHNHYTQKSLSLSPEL
Protocol: (§2) Binding experiments of TTPN and mTRAIL to TRAIL receptors DR4 and DR5 were analyzed at 25° C. using a surface plasmon resonance apparatus (SR7500 DC, Reichert Inc., NY, USA). DR4 and DR5-fc chimeric proteins (R&D systems 347-DR-100, 631-T2-100) were immobilized on the surface of the Planar Protein A sensor chip (Reichert, 13206069) and the receptors were coated at a level of 300 to 500 resonance units. SPR kinetic titrations were performed by adding 250 μl of TTPN and mTRAIL with different concentrations in the range of 1.56 to 400 nM and 0.1 to 25.6 μM, respectively, increasing by four times. Each analyte was run at 50 μL/min using running and sample buffer (0.5 M Tris-HCl (pH 7.4), 150 mM NaCl, 0.005% Tween 20), and binding of the ligand to the receptor was performed and monitored in real time. For titration sensorgrams, a simple 1:1 Langmuir interaction model (A+B↔AB) was applied using the data analysis program Scrubber 2.0 (BioLogic Software, Australia, and KaleidaGraph Software, Australia) and CLAMP software.
(§3) The affinity KD was determined from the formula of KD=kd/ka. Results are based on representative sensorgrams obtained from saturation binding reactions averaged over at least three independent runs of SPR measurements (FIG. 31).

[3] = test system: HEK293T cells; test: Cell viability, CCK-8 assay, HEK293T normal cells; assay type: cell-based; conditions: HEK293T normal cells (FIG. 18)
Protocol: (§4) After culturing for 24 hours, cell viability was measured using a cell counting kit (CCK)-8 assay (Dojindo Molecular Technologies, Gaithersburg, Md.). The plate was then read with an absorbance microplate reader (Spectramax 340, Molecular Devices Corporation) at a wavelength of 450 nm and 50% effective by regression analysis using SigmaPlot software (Systat Software, Inc., San Jose, Calif.). The concentration value was calculated.

[4] = test system: TRAIL receptors on the surface of HepG2 cells; test: Cell binding by flow cytometry; assay type: cell-based, human
Protocol: TRAIL receptor expression was evaluated on various cell surfaces. Specifically, HepG2, HT29, and HEK293T cells (2×10^5) were cultured with four types of anti-human TRAIL receptor antibodies (R&D system, MAB347, MAB6311, MAB6301, MAB633). […] Nanocage bound cells were detected with an Accuri™ C6 flow cytometer (BD Biosciences) and analyzed using FlowJo_V10 software (FlowJo). The binding specificity of TTPN to TRAIL receptor was analyzed by blocking experiments by pre-culture of anti-human TRAIL receptor antibodies and cells at 4° C. for 20 minutes. […] Thereafter, the cells were fixed with 4% paraformaldehyde and stained with Hoechst 33258 before analysis for cell binding detection in a fluorescence microscope (Nikon Eclipse Ti, Nikon). Data were analyzed using LAS AF Lite software (Leica).

[5] = Dynamic light scattering (DLS) size; assay type: physicochemical
[6] = In vitro stability (soluble protein in buffer over time); assay type: physicochemical
Protocol: The stability of TTPN, DOX-TTPN and mTRAIL was investigated by measuring changes of concentration in a suitable buffer solution. […] At predetermined times, aggregated proteins were collected at 13,000 rpm for 10 minutes, and the concentration of soluble DOX-TTPN and TTPN in the supernatant was measured using absorbance in UV280.

[7] = over 1 month (Kih et al.); cited from earlier work
[8] = test system: cleaved form of caspase-3; test: Western blot of HT29 lysates: cleaved caspase-3; assay type: cell-based, human; conditions: HT29, 50 nM, 24 hours
Protocol: as §1

[9] = test system: XIAP; test: Western blot of HT29 lysates: XIAP; assay type: cell-based, human; conditions: HT29, 24 hours
Protocol: as §1

[10] = test system: HepG2 cells; test: Cell viability, CCK-8 assay, HepG2; assay type: cell-based, human; conditions: TRAIL-sensitive HepG2 cells, 24 hours (FIG. 17)
Protocol: as §4

[11] = test system: HT29 cells; test: Annexin V early apoptosis flow cytometry, HT29; assay type: cell-based, human; conditions: HT29, low concentrations, 24 hours
Protocol: HepG2, HT29, or MCF7 cells (1.5×10^4) were cultured in a 96-well plate for 1 day, after which DOX-TTPNs, DOX-FTNs, free DOX, empty TTPNs, or buffer was added to each well. After 24 hours, cell viability was measured using a CCK-8 assay (Dojindo Molecular Technologies) according to the manufacturer's instructions. For analysis of early apoptosis, HT29 cells in 6-18 well culture plate were treated with DOX-TTPNs, free DOX, empty TTPNs, or buffer for 24 hours. Thereafter, cells were incubated with Alexa Fluor 488-conjugated annexin V (Invitrogen) 20 for 15 minutes, then analyzed using an Accuri™ C6 flow cytometer (BD Biosciences) and FlowJo 21 v10 software.

[12] = test system: DR5; test: Western blot time course of DR5 levels in HT29; assay type: cell-based, human; conditions: HT29, 4, 12 and 24 hours
[13] = target: T2, DR5 (Homo sapiens, UniProt O14763); test: SPR binding to immobilized DR5-Fc; conditions: 25° C.
T2 construct: purchased R&D systems 631-T2-100
T2 sequence (O14763 with tags, fused parts or gaps limits assumed): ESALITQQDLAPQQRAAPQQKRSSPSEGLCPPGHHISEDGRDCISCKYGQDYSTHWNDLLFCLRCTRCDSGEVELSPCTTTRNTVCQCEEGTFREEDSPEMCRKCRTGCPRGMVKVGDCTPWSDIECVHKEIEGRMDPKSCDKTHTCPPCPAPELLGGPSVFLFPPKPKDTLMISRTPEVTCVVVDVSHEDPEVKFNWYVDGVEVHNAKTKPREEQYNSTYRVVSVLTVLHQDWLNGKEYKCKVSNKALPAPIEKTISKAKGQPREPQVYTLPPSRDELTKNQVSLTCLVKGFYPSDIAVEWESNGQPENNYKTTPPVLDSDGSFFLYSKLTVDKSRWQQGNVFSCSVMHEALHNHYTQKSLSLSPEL
Protocol: as §2, §3

ka ([2]; DR4-Fc immobilized, 25° C.): 3.23 (±0.26) · 10^4 M^−1 · S^−1
kd ([2]; DR4-Fc immobilized, 25° C.): 2.42 (±0.48) · 10^−5 s^−1
increased affinity compared with monomeric TRAIL ([2]; for DR4 and DR5): up to 330 fold
ka [13]: 6.62 (±4.19) · 10^4 M^−1 · S^−1
kd [13]: 1.49 (±1.13) · 10^−5 s^−1
Substance: TTPN: protein nanocage presenting TRAIL as natural-like homo-trimers; TRAIL 95-281 fused by linker peptide to human ferritin heavy chain
increase in PARP relative to buffer-treated controls (defined as 1) [1]: 457 fold
apoptosis [3]: low apoptosis rate
binding on the surface of HepG2 cells ([4]; 400 nM, 4° C., 20 minutes): greater effect than wtFTN
binding after pre-incubation with four anti-TRAIL receptor antibodies ([4]; HepG2, 400 nM): reduced
average size (DLS) [5]: 25.85 nm
stability in solution ([6]; 15 mg/mL in PBS buffer for 24 hours (FIG. 15)): remarkably improved stability
amount maintained in the soluble form ([6]; after 1 month, 10 mg/mL (FIG. 16)): more than 90%
stability [7]: more than 90%
cleaved caspase-3 (and PARP) expression [8]: little change
decrease in XIAP levels compared with buffer treatment [9]: no significant effect
apoptosis [10]: concentration-dependent apoptosis
induction of early apoptosis [11]: ineffective in inducing apoptosis
DR5 expression levels over time [12]: no significant change
